# Test results taken from the DeepSol protein solubility set.
# Assay: soluble on expression in E. coli; label from the status in PepcDB or PDB records
row,Sequence,soluble on expression in E. coli
1,MGSDKIHHHHHHMLYFQNAFSLRGTHDAIIVGIFEGHEPLVAELKQLDETLNGHLSTLVKQKQLKTEAGKITELYTFGLIETKWVLAVGLGKRSDASADTLRAGFAAVGERVKEKRMTNVTVVLPSFVSERVSEQEVARLFGESFTMGYSTIDDYKERTNLVDKSLNSVTVFHGHRPVETGIREGIAYGNGSVYAERLMSIPRTLLSPTELVTEAQALANRHGFDTETLEQKELEKLGMGGLLAASGPAENATMIVLKNKGKREEREVIGLIGAGGNGIFSPWMGGAAAVLGAMDIIGSLHSQKNVLAILPIVEQEQGQPKPMPGDVIRSYSGKTIEVDHIEAVGALLLADGITYAKELGVHSLVTVAPLAEELRSILGDKFTAAVTNDESWLKKMQEASLKSGEPIWTLPYYRPYKKRLQEESVADLRLTIGRFANCMATALFVGEFAENDPWVHLDIAGTVARARGIMVRTLAAFVLNNGERELR,not soluble
2,MICPRCADAHIELMATSPVKGVWTVYQCQHCLYTWRDTEPLRRTSREHYPQAFRMTQKDIDDAPMVPSIPPLLAEDKR,not soluble
3,HPICEVSKVASHLEVNCDKRNLTALPPDLPKDTTILHLSENLLYTFSLATLMPYTRLTQLNLDRAELTKLQVDGTLPVLGTLDLSHNQLQSLPLLGQTLPALTVLDVSFNRLTSLPLGALRGLGELQELYLKGNELKTLPPGLLTPTPKLEKLSLANNNLTELPAGLLNGLENLDTLLLQENSLYTIPKGFFGSHLLPFAFLHGNPWLCNCEILYFRRWLQDNAENVYVWKQGVDVKAMTSNVASVQCDNSDKFPVYKYPGKGCPTLGDEGDTDLYDYYPEEDTEGDKVR,soluble
4,MMRSLLSHPQPSHAIRSPAAACALALFLSGCQSLGTDGLTASNAPAEISGPAASAIAGDMVGRLAEQIGPGTATVSLKQDNSPFGQALEAALKGWGYAVVTDQKTDGVSRIVPLAYVVIPFEGQVLTRLSTNSIELGRAYIVTTSGAQPASALAVMKRGLEHHHHHH,not soluble
5,KTHEGHCYIIKAHTPIEEFNEQLNADFSDETYDTIGGIVLNKFGYLPQRGEVIIIDDFEFKVLNADSRRIKLLECLDKR,soluble
6,MGSDKIHHHHHHMGLFNIFDVAGSGMSAQSLRLNTTASNIANADSVSSSIDKTYRSRHPIFEAEMAKAQSQQQASQGVAVKGIVESDKPLLKEYSPDHPMADGDGFIYKPNVNVMEEMADMISASRSYQMNVQVAEAAKSMLQQTLGMGK,not soluble
7,MKYGPSKDQIKQMAEEVREAAIRVKGEKELRMCPKTGHGSEWAGQLAVDANGAMNTYQPEGKYGDYGIGEDNRYLGTAKDWATLESGYQWIPGEFERYLMPEPHDFDALVDSAQKLTKDFVNVGQAKDPANVPAGTPTSVAPGTSAVDQPIRLSMGFTSDWSGHFADGFQRYLSEIPDVTRRQAVVAETLYEAAVAARDIYGAGREELGNIAKNAKLAIEGVEAGKSTGGCAGSSMATGFALIAAAATVAAGVSTLPISGPAVISGAMAAGNWTIVVGISSAIAAGSPLIPAPEKIELLASDVDGVIEKMKEALTKREKTVTDSEEAFAKKLGANSEMVEKNKVTGKDGGKSQDNAFFPRRPAMLDMSTDLKDLKDPATGFTHPVAAS,not soluble
8,MAELVPFAVPIESDKTLLVWELSSGPTAEALHHSLFTAFSQFGLLYSVRVFPNAAVAHPGFYAVIKFYSARAAHRAQKACDRKQLFQKSPVKVRLGTRHKAVQHQALALNSSKCQELANYYFGFNGCSKRIIKLQELSDLEERENEDSMVPLPKQSLKFFCALEVVLPSCDCRSPGIGLVEEPMDKVEEGPLSFLMKRKTAQKLAIQKALSDAFQKLLIVVLESGKIAVEYRPSEDIVGVRCEEELHGLIQVPCSPWKQYGQEEEGYLSDFSLEEEEFRLPELD,soluble
9,MCMNKKRIYKFRRFLARKLDFPSDAVMYTPRINISVTGDEEITIENYRGIVEFSDENIKVNTEVGTISIDGKNFEIVFISGSTIILGGKFKTIAYGGDKNEALEHHHHHH,soluble
10,MGSDKIHHHHHHMQDKNFDKLAQKFAKNIYGTPKGEIRAAVLWRDLAPALAQFGDKKLRILDAGGGFGYFSQKLARLGHEVVLCDISAEMLAQAKEQIDASDTPLAIRLVHAPIQALSITEHGMFDLILCHAVVEWLADAKTTMEGLLTMLKPNGLFSLMFYNKEAMRFHALVSGNFDYVAADLKVKKKVRLTPTHPLYIHEVKLWFAQWQMALLKESGVRVIHDYLKKQQAADFDYQKLLSMELEYSQREPYISLGRYVHFLGQSTATHSE,not soluble
11,MMQYMLLFSRQGKLRLQKWYTAYPDKQKKKICRELITQILARKPKMCAFLEYKDLKVVYKRYASLYFCCAIEQNDNELITLEVIHRYVELLDKYFGSVCELDIIFNFEKAYFILDEFLLAGEIQETSKKQVLKAIAAQDLIQEEETPQGFFEDHGLG,not soluble
12,MKLRSVTYALFIAGLAAFSTSSLAAQSLRFGYETSQTDSQHIAAKKFNDLLQERTKGELKLKLFPDSTLGNAQAMISGVRGGTIDMEMSGSNNFAGLSPVMNLLDVPFLFRDTAHAHKTLDGKVGDDLKASLEGKGLKVLAYWENGWRDVTNSRAPVKTPADLKGLKIRTNNSPMNIAAFKVFGANPIPMPFAEVYTGLETRTIDAQEHPINVVWSAKFFEVQKFLSLTHHAYSPLLVVINKAKFDGLSPEFQQALVSSAQEAGNYQRKLVAEDQQKIIDGMKEAGVEVITDLDRKAFSDALGNQVRDMFVKDVPQGADLLKAVDEVQ,not soluble
13,MRVLFIGDVMAEPGLRAVGLHLPDIRDRYDLVIANGENAARGKGLDRRSYRLLREAGVDLVSLGNHAWDHKEVYALLESEPVVRPLNYPPGTPGKGFWRLEVGGESLLFVQVMGRIFMDPLDDPFRALDRLLEEEKADYVLVEVHAEATSEKMALAHYLDGRASAVLGTHTHVPTLDATRLPKGTLYQTDVGMTGTYHSIIGGEVETFLARFLTGRPQPFRAAQGKARFHATELVFEGGRPVAISPYVWEEP,soluble
14,MSLAYGIRLLVWGERACFTRPEMKVERVSYDVITPSAARGILEAIHWKPAICWVVDRIHVLKPIRFESIRRNEVGGKLSAASVGKAMKAGRTDGLIALADEDRQQRAATVLRDVSYVIEAHFELTARADASDSEGKHLDIFNRRARKGQYFHAPCLGVREFPASFELIEPDDVLPAVPADLRGERELGWMLHDIDFANDMTPHFFRAVMRDGVIEVPALRSEGVKAEGHHHHHH,soluble
15,MADFLTRFIREELSWRGYEKAIVAVSGGVDSATTLALAVRALGAERVHALFLPHRESSPTSREHAYLVAETFGVALEEVDITPMVEGYAALTPDLTPHRKGNVMARARMIVLFDKSEAYRALPLGTGNKTERLFGYFTWHGDDTPPVNPLGDLYKTQVWRLAEHLGVPEEVVRKPPTADLIPGQTDEADLGLRYLRADVILEHYLKGYSDQYILGLGFTEEELRRVKERVNRTHWKRALPTVALLSSTAIGEFYLRPLDYRP,soluble
16,MSLGTLWWNGTFFTMVHEGDQVEAVFTEDGKIVAIGTAEELRQRYSTRINQEMNCDGAYVYPGFVDSHLHMIGHGEKLLRLDLSTVMNAEDMREKLMERVALTEEGDWVTAEGWNENNFPDQKIFHRNELDEIAPNHPMILTRVCRHAILVNSKALQLAGISKDTTDPPGGRIVRDELGEPTGYLLDTAQELVKRVAPSVSAAYLERALAAAVDDMVAKGLVGGHTEDLGYYLGFNQTFATFQRVIDGNTRRFRAHLLVHHEVIDDMIKAGYCKGPVGEWLEFGAMKIFADGAFGGRTALLSEPYCDAPTTSGVAIHTQEQLTNLIKKARQYKLPVAIHTIGDEALRMAITSIEAHPVTEGRDRLIHTQVTPPSLVERMKKLKVILDIQPAFVPADFPWVEERLGNERLSYSFAWKTLLRSGMALAGGSDAPIEEVDPLYGIYAAVARKKPTDQHEGYLPEEKLTRYEALQLYTTGSAYAIEREHERGNIRPGYVADFTMLNRNLFTCREEELLTTRVEKTVIGEAIVFQAKGIITITTDPNSSSVDKLAAALEHHHHHH,soluble
17,MNHLKEVYIDIRDEIFDALDAASLVDVEPLELESQLKDSVNILIEKKQLQISSLKRLDLVKALLDELKGLGPLQALVDNDDISDIMINGPSDIFIEINGKVEKSPIQFVNEKQLNTIAKRIASNVGRRIDESKPLCDARLEDGSR,not soluble
